This passage reports amount giving 50% inhibition of the tyrosine kinase activity of the receptors (32P incorporation into poly Glu-Tyr) results from patent publication US6867003.

In this assay the target is insulin receptor partially purified from CHO-IR cells (Chinese Hamster Ovary cells expressing high levels of insulin receptors of human origin) (human) (UniProt P06213). The experiment in a line: cell-based or functional assay.

B1: GST-mGrb10 (protein, mouse, UniProt Q60760 1-621, looked up, not shown: a dimerising Fc or GST)
chain: MNNDINSSVESLNSACNMQSDTDTAPLLEDGQHASNQGAASSSRGQPQASPRQKMQRSQPVHILRRLQEEDQQLRTASLPAIPNPFPELTGAAPGSPPSVAPSSLPPPPSQPPAKHCGRCEKWIPGENTRGNGKRKIWRWQFPPGFQLSKLTRPGLWTKTTARFSKKQPKNQCPTDTVNPVARMPTSQMEKLRLRKDVKVFSEDGTSKVVEILTDMTARDLCQLLVYKSHCVDDNSWTLVEHHPQLGLERCLEDHEIVVQVESTMPSESKFLFRKNYAKYEFFKNPVNFFPDQMVNWCQQSNGGQAQLLQNFLNTSSCPEIQGFLQVKEVGRKSWKKLYVCLRRSGLYYSTKGTSKEPRHLQLLADLEESSIFYLIAGKKQYNAPNEHGMCIKPNKAKTEMKELRLLCAEDEQIRTCWMTAFRLLKYGMLLYQNYRIPQRKGLPPPFNAPMRSVSENSLVAMDFSGQIGRVIDNPAEAQSAALEEGHAWRKRSTRMNILSSQSPLHPSTLNAVIHRTQHWFHGRISREESHRIIKQQGLVDGLFLLRDSQSNPKAFVLTLCHHQKIKNFQILPCEDDGQTFFTLDDGNTKFSDLIQLVDFYQLNKGVLPCKLKHHCIRVAL
For the molecule B1, the amount giving 50% inhibition of the tyrosine kinase activity of the receptors (32P incorporation into poly Glu-Tyr) was found to be 0.13 µg.
